{"source": "IntAct's records for PubMed 23104057", "parents": {"B1": {"name": "Plexin-A2 (Mus musculus), P70207 (parent)", "chain": "MEQRRFYLRAMQADNLSVVLLSVAWLLLARGTTGMPQYSTFHSENRDWTFNHLTVHRRTGAVYVGAINRVYKLTGNLTIQVAHKTGPEEDNKACYPPLIVQPCSEVLTLTNNVNKLLIIDYSENRLLACGSLYQGVCKLLRLDDLFILVEPSHKKEHYLSSVNKTGTMYGVIVRSEGEDGKLFIGTAVDGKQDYFPTLSSRKLPRDPESSAMLDYELHSDFVSSLIKIPSDTLALVSHFDIFYIYGFASGGFVYFLTVQPETPDGMAINSAGDLFYTSRIVRLCKDDPKFHSYVSLPFGCTRAGVEYRLLQAAYLAKPGEALAQAFNISSDEDVLFAIFSKGQKQYHHPPDDSALCAFPIRAINLQIKERLQSCYHGEGNLELNWLLGKDVQCTKAPVPIDDNFCGLDINQPLGGSTPVEGLTLYTTSRDRLTSVASYVYNGYSVVFVGTKSGKLKKIRADGPPHGGVQYEMVSVFKDGSPILRDMAFSINQLYLYVMSERQVTRVPVESCEQYTTCGECLSSGDPHCGWCALHNMCSRRDKCQRAWEANRFAASISQCMSLEVHPNSISVSDHSRLLSLVVNDAPNLSEGIACAFGNLTEVEGQVSGSQVICISPGPKDVPVIPLDQDWFGLELQLRSKETGKIFVSTEFKFYNCSAHQLCLSCVNSAFRCHWCKYRNLCTHDPTTCSFQEGRINVSEDCPQLVPTEEILIPVGEVKPITLKARNLPQPQSGQRGYECVLSIQGAVHRVPALRFNSSSVQCQNSSYQYDGMDISNLAVDFAVVWNGNFIIDNPQDLKVHLYKCAAQRESCGLCLKADHKFECGWCSGERRCTLHQHCPSTSSPWLDWSSHNVKCSNPQITEILTVSGPPEGGTRVTIHGVNLGLDFSEIAHHVQVAGVPCTPIPGEYIIAEQIVCEMGHAVIGTTSGPVRLCIGECKPEFMTKSHQQYTFVNPSVLSLSPIRGPESGGTMVTITGHYLGAGSSVAVYLGNQTCEFYGRSMNEIVCVSPPSSNGLGPVPVSVSVDRARVDSSLQFEYIDDPRVQRIEPEWSITSGHTPLTITGFNLDVIQEPRVRVKFNGKESVNVCTVVNTTTLTCLAPSLTSDYRPGLDTVERPDEFGFLFNNVQSLLIYNDTKFIYYPNPTFELLSPTGILDQKPGSPIILKGKNLCPPASGGAKLNYTVMIGETPCTVTVSETQLLCEPPNLTGQHKVMVHVGGMVFSPGSVSVISDSLLTLPAIISIAAGGSLLLIIVIIVLIAYKRKSRENDLTLKRLQMQMDNLESRVALECKEAFAELQTDINELTSDLDRSGIPYLDYRTYAMRVLFPGIEDHPVLRELEVQGNGQQHVEKALKLFAQLINNKVFLLTFIRTLELQRSFSMRDRGNVASLIMTGLQGRLEYATDVLKQLLSDLIDKNLENKNHPKLLLRRTESVAEKMLTNWFAFLLHKFLKECAGEPLFMLYCAIKQQMEKGPIDAITGEARYSLSEDKLIRQQIEYKTLILNCVNPDNENSPEIPVKVLNCDTITQVKEKILDAVYKNVPYSQRPRAVDMDLEWRQGRIARVVLQDEDITTKIEGDWKRLNTLMHYQVSDRSVVALVPKQTSSYNIPASASISRTSISRYDSSFRYTGSPDSLRSRVPMITPDLESGVKVWHLVKNHDHGDQKEGDRGSKMVSEIYLTRLLATKGTLQKFVDDLFETLFSTVHRGSALPLAIKYMFDFLDEQADRHSIHDTDVRHTWKSNCLPLRFWVNVIKNPQFVFDIHKGSITDACLSVVAQTFMDSCSTSEHRLGKDSPSNKLLYAKDIPSYKNWVERYYADIAKLPAISDQDMNAYLAEQSRLHATEFNMLSALNEIYSYVSKYSEELIGALEQDEQARRQRLAYKVEHLINAMSIES"}, "B2": {"name": "Neuropilin-1 (Mus musculus), P97333 (parent)", "chain": "MERGLPLLCATLALALALAGAFRSDKCGGTIKIENPGYLTSPGYPHSYHPSEKCEWLIQAPEPYQRIMINFNPHFDLEDRDCKYDYVEVIDGENEGGRLWGKFCGKIAPSPVVSSGPFLFIKFVSDYETHGAGFSIRYEIFKRGPECSQNYTAPTGVIKSPGFPEKYPNSLECTYIIFAPKMSEIILEFESFDLEQDSNPPGGMFCRYDRLEIWDGFPEVGPHIGRYCGQKTPGRIRSSSGVLSMVFYTDSAIAKEGFSANYSVLQSSISEDFKCMEALGMESGEIHSDQITASSQYGTNWSVERSRLNYPENGWTPGEDSYKEWIQVDLGLLRFVTAVGTQGAISKETKKKYYVKTYRVDISSNGEDWISLKEGNKAIIFQGNTNPTDVVLGVFSKPLITRFVRIKPVSWETGISMRFEVYGCKITDYPCSGMLGMVSGLISDSQITASNQADRNWMPENIRLVTSRTGWALPPSPHPYTNEWLQVDLGDEKIVRGVIIQGGKHRENKVFMRKFKIAYSNNGSDWKTIMDDSKRKAKSFEGNNNYDTPELRTFSPLSTRFIRIYPERATHSGLGLRMELLGCEVEAPTAGPTTPNGNPVDECDDDQANCHSGTGDDFQLTGGTTVLATEKPTIIDSTIQSEFPTYGFNCEFGWGSHKTFCHWEHDSHAQLRWSVLTSKTGPIQDHTGDGNFIYSQADENQKGKVARLVSPVVYSQSSAHCMTFWYHMSGSHVGTLRVKLRYQKPEEYDQLVWMVVGHQGDHWKEGRVLLHKSLKLYQVIFEGEIGKGNLGGIAVDDISINNHISQEDCAKPTDLDKKNTEIKIDETGSTPGYEGEGEGDKNISRKPGNVLKTLDPILITIIAMSALGVLLGAVCGVVLYCACWHNGMSERNLSALENYNFELVDGVKLKKDKLNPQSNYSEA"}, "B3": {"name": "Neuropilin-1 (Mus musculus), P97333 (parent)", "chain": "B2 chain", "partner": "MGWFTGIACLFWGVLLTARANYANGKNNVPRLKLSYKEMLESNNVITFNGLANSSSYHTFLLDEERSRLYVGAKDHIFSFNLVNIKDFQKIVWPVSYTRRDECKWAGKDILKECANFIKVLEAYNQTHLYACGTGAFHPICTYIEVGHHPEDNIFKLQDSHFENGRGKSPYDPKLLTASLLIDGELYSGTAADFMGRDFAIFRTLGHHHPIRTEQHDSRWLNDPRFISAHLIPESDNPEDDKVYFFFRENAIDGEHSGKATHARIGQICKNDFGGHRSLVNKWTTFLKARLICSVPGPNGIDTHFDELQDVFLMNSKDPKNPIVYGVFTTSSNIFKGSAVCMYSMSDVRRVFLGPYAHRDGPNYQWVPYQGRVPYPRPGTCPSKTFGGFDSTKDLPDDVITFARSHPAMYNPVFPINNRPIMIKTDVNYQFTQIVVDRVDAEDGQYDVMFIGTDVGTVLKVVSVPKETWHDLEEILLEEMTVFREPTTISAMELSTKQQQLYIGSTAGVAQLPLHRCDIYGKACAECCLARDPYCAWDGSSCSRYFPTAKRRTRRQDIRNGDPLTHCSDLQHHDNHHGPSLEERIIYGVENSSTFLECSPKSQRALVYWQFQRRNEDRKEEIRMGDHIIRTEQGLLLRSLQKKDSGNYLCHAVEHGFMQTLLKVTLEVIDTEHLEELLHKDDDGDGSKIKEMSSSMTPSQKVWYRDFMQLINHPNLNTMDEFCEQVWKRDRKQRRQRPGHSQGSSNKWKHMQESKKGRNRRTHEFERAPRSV"}, "B4": {"name": "Semaphorin-3A (Mus musculus), O08665 (parent)", "chain": "B3 partner"}}, "data": [{"variants_of": "B1", "details": "with nrp1_mouse Nrp1, P97333", "values": [{"variant": "F275N", "effect of a mutation on the interaction": "decreasing interaction strength"}]}, {"variants_of": "B2", "details": "with plxa2_mouse Plxna2, P70207", "values": [{"variant": "P73A;H74S", "effect of a mutation on the interaction": "disrupting interaction strength"}]}, {"variants_of": "B3", "details": "with sem3a_mouse Sema3a", "values": [{"variant": "P73A;H74S", "effect of a mutation on the interaction": "disrupting interaction strength"}]}, {"variants_of": "B4", "details": "with nrp1_mouse Nrp1, P97333", "values": [{"variant": "L353N;P355S", "effect of a mutation on the interaction": "decreasing interaction strength"}]}]}
